Assay results taken from IntAct's records for PubMed 25231868.

B1: DNA endonuclease SAE2 (Saccharomyces cerevisiae), P46946 (parent)
chain: MVTGEENVYLKSSLSILKELSLDELLNVQYDVTTLIAKRVQALQNRNKCVLEEPNSKLAEILCHEKNAPQQSSQTSAGPGEQDSEDFILTQFDEDIKKESAEVHYRNENKHTVQLPLVTMPPNRHKRKISEFSSPLNGLNNLSDLEDCSDTVIHEKDNDKENKTRKLLGIELENPESTSPNLYKNVKDNFLFDFNTNPLTKRAWILEDFRPNEDIAPVKRGRRKLERFYAQVGKPEDSKHRSLSVVIESQNSDYEFAFDNLRNRSKSPPGFGRLDFPSTQEGNEDKKKSQEIIRRKTKYRFLMASNNKIPPYEREYVFKREQLNQIVDDGCFFWSDKLLQIYARC
partner: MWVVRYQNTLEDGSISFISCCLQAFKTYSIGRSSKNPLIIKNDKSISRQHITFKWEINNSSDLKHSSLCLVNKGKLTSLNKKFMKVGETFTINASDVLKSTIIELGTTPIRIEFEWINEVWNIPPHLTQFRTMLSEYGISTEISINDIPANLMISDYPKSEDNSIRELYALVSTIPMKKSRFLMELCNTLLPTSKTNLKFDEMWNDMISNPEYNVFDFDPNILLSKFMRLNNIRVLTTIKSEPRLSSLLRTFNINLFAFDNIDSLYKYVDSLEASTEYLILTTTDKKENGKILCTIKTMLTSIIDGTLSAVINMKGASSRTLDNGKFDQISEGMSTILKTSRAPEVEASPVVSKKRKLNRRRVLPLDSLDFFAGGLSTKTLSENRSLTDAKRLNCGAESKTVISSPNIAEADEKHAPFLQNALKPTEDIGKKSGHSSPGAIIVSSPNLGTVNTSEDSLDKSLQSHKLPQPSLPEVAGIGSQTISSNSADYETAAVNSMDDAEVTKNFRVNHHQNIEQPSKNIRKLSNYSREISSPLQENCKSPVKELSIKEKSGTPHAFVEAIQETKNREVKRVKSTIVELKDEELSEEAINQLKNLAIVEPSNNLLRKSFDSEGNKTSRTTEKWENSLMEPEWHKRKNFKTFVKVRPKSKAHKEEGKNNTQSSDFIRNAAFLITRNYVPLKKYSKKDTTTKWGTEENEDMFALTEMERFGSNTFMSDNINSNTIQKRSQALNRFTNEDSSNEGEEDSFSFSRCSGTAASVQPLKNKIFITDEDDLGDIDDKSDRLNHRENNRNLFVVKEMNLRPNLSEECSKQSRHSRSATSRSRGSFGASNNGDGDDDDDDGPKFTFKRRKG

Variants of: B1
Conditions: with xrs2_yeast XRS2, P33301

effect of a mutation on the interaction	Variant
disrupting interaction strength	S267A;P268A
decreasing interaction strength	G270D
decreasing interaction strength	P277A;S278A;T279A
